T1: human GFRα1 expressed with a C-terminal human Fc tag and a hexahistidine tag (human, UniProt P56159 25-429, limits assumed)
T1 construct: bought protein; also called hGFRα1-hFc-6His; hGFRα1-hFc-6his
T1 sequence (looked up): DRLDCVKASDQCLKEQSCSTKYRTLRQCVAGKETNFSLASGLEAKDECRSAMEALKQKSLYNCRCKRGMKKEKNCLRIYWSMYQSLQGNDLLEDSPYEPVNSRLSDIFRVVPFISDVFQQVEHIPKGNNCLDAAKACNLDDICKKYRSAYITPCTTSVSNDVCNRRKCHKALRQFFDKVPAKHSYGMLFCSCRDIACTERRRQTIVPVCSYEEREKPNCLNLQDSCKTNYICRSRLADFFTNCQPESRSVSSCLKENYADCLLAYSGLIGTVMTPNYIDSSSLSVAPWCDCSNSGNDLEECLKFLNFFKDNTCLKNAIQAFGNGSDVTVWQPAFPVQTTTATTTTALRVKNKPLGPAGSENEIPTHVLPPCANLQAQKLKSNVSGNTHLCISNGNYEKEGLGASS

T2: human GFRα3 expressed with a C-terminal mFc tag (human)
T2 construct: also called hGFRα3-mFc
T2 chain: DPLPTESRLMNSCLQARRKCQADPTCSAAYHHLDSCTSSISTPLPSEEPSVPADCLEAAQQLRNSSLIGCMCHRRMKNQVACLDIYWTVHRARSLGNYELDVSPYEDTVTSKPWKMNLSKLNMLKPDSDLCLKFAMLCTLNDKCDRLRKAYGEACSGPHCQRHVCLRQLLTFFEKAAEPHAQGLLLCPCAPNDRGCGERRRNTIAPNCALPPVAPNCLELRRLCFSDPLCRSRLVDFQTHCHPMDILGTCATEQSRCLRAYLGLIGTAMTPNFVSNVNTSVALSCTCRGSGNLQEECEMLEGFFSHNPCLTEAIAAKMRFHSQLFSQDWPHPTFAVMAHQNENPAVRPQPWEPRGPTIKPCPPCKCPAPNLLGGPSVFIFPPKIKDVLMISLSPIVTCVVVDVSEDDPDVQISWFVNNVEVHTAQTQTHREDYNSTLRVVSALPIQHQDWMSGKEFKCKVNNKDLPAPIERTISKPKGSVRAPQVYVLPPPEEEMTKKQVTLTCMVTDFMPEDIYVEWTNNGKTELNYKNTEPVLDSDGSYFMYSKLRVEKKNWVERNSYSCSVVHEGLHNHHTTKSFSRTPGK


Legend:
[1] = biological target: T3, human GFRα3 expressed with a C-terminal myc-myc-hexahistidine tag (human, UniProt O60609 32-374, biotinylated (sites not given) in ELISA format 2 and in the Octet cross-competition; not in SPR); experiment: blocking ELISA 2, biotin-hGFRα3-mmH to coated hARTEMIN-mmH + hRET-10His; IC50 cell 'enhancer'
T3 construct: also called hGFRα3-mmh; hGFRα3-mmH
T3 sequence (O60609 other isoform, or with tags, fused parts or gaps limits assumed): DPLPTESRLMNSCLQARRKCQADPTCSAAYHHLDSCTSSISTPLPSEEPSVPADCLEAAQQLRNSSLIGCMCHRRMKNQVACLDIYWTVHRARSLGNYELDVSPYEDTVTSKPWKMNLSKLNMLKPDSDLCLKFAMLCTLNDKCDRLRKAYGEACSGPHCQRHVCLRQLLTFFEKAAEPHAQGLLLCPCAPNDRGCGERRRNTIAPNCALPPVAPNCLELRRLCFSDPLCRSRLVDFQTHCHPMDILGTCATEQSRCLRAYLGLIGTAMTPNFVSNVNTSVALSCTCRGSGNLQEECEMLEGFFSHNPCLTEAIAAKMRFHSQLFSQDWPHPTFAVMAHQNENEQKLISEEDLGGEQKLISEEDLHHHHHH
Procedure: The equilibrated sample solutions were then transferred to the hARTEMIN-mmH-coated plate. […] Absorbance was recorded at 450 nm on a Victor X5 plate reader (Perkin Elmer) to determine the amount of free hGFRα3-hFc in the pre-equilibrated hGFRα3-hFc-antibody solutions that was able to bind to the plate coated with hARTEMIN-mmH. IC₅₀ values, defined as the concentration of antibody required to reduce the signal from a constant concentration of hGFRα3-hFc by 50%, were calculated from the data using Prism software from GraphPad. The absorbance measured at the constant amount of 120 pM hGFRα3-hFc in the absence of anti-GFRα3 antibody is defined as 0% blocking and the absorbance with no added hGFRα3-hFc is defined as 100% blocking. The observed absorbance in the wells containing the highest antibody concentration was used to calculate the maximum blocking percent shown in the table.
In the second ELISA format, the plates, samples and data were processed similarly as for the first format except both hARTEMIN-mmH and human RET with a C-terminal 10 histidine tag (hRET-10His; R&D Systems, #1168-CR/CF) were coated for the blocking ELISA experiment. The 96-well microtiter plates were coated with a mixture of 1.2 ug/ml hARTEMIN-mmH and 6.9 ug/ml hRET-10His proteins in PBS overnight at 4° C. and then blocked with a solution of 0.5% (w/v) BSA. A constant amount of biotinylated human GFRα3 with a C-terminal myc-myc-hexahistidine tag (biotin-hGFRα3-mmH; SEQ ID:370) at 1 nM was pre-mixed with varied amounts of anti-GFRα3 antibodies, ranging from 0 to ˜100 nM in serial dilutions, followed by a 1 hour incubation at RT to allow antibody-biotin-hGFRα3-mmH binding to reach equilibrium. The equilibrated samples were then transferred to the coated plate. After 1 hour of binding, the plate was washed, then the bound biotin-hGFRα3-mmH was detected using HRP conjugated streptavidin (Pierce, #N200), and colorimetric signals were developed using TMB HRP substrates.

[2] = biological target: T1, human GFRα1 expressed with a C-terminal …; experiment: BLI Octet, antigen captured on anti-hFc tips
Procedure: The ability of anti-GFRα3 antibodies to bind to GDNF-family receptors was assessed using an Octet Red biosensor (Fortebio, Inc.). Antibodies were tested for binding to either human GFRα1 expressed with a C-terminal human Fc tag and a hexahistidine tag (hGFRα1-hFc-6His, R&D Systems #714-GR), human GFRα1 expressed with only a C-terminal human Fc tag (hGFRα1-hFc; SEQ ID: 376), human GFRα2 expressed with a C-terminal human Fc tag and a hexahistidine tag (hGFRα2-hFc-6His, R&D Systems #613-FR), human GFRα3 expressed with a C-terminal human Fc tag (hGFRα3-hFc, SEQ ID:371), or an irrelevant human Fc tagged protein. Antigens were captured onto anti-human Fc sensor tips from 10 ug/mL solutions for 5 minutes. The coated sensor tips were then blocked with a 100 ug/mL solution of irrelevant human Fc antibodies for 5 minutes. Blocked sensor tips were then submerged into wells containing […] of each anti-GFRα3 antibody or buffer alone for 10 minutes. The experiment was performed at 25° C. with a flow rate of 1000 rpm using HBST+BSA buffer (10 mM HEPES, 150 mM NaCl, 3 mM EDTA, 0.05% w/v Surfactant P20, 0.1 mg/mL BSA, pH 7.4). The binding response (measured in units of nm) at each step of the experiment was monitored and recorded.

[3] = biological target: T2, human GFRα3 expressed with a C-terminal …; experiment: SPR, Ab captured, 25C; 25° C.

| % max blocking [1] [%] | binding result [2] | koff [3] [s⁻¹] | Binder |
| --- | --- | --- | --- |
| 95 |  |  | H4H2355S (antibody, human IgG4, V domains shown, human IgG4 Fc (H4H)) VH: EVQLVESGGGLVQPGGSLRLSCAASGFTFSSYAMSWVRQVPGKGLEWVSAISGSGDNTYNAESVKGRFTISRDNSKNMLYLQMNSLRAEDTAVYYCAKTKFSSSLLFDYWGQGTLVTVSS VL: not shown |
| 68 |  |  | H4H2236N3 (antibody, human IgG4, V domains shown, human IgG4 Fc (H4H)) VH: EVQLLESGGNLVQPGGSLRLSCAASGFTFSSYAMTWVRQAPGKGLEWVSTISGSGTSTYYADSVKGRFTISRDNSRDTVFLQMNSLRAEDTAVYYCSKPSALRFLHWLAMDVWGQGTLVTVSS VL: DIQMTQSPSSLSAFVGDRVTITCRASQDIRNYLDWFQQKPGKAPKSLIYAASNLQSGVPSRFGGSGSGTDFTLTINSLQPEDFVTYYCQQYNSYPPTFGGGTKVEIK |
|  | no binding (tested: 100 ug/mL) |  | H4H2243N2 (antibody, human IgG4, V domains shown, human IgG4 Fc (H4H)) VH: QVQLVQSGAEVKKPGASVKVSCKASGYTFTSYGIIWVRQAPGQGLEWMGWISGYNGNTNYAQNLQGRVTMTTDTSTTTAYMELRSLRSDDTAVYYCARWGIATRPYYYYGMDVWGQGTTVTVSS VL: DIQMTQSPSSLSASVGDRVTITCRASQDITNYLAWFQQKPGKAPKSLIYAASSLQSGVPSKFSGSGSGTDFTLTISSLQPEDFATYYCQQYNSYPPTFGPGTKVDIK |
|  | no binding (tested: 100 ug/mL) |  | H4H2352S (antibody, human IgG4, V domains shown, human IgG4 Fc (H4H); also called H4H2352S-1) VH: EVQLVQSGAEVKKPGASVKVSCKASGYTFTNYGITWVRQAPGQGLEWMGWISAYNGNTGYAQKFQGRVTMTTDTSTSTAYMELRSLRSDDTAVYYCAREDYDFWRAFDIWGQGTMVTVSS VL: EIVLTQSPGTLSLSPGERATLSCRASQSVSSTYLAWLQQKPGQAPRLLIYGASSRATGIPDRFSGSGSGTDFTLTINRLEPEDFAVYYCQQYAYSPYTFGQGTKLEIK |
|  | no binding (tested: 100 ug/mL) | ≤ 1e-06 | H4H2292S (antibody, human IgG4, V domains shown, human IgG4 Fc (H4H)) VH: EVQLVESGGGVVQPGRSLRLSCAASGFTFSSYGMHWVRQAPGKGLEWVSFIWYDGSNKYYADSVKGRFTISRDNSKNTLYLQMNSLTAEDTAVYYCARRGILTGTTAFDIWGQGTMVTVSS VL: DIQMTQSPSSLSASVGDRVTITCRASQSISSYLNWYQQKPGKAPKLLIYAASSLQSGVPSRFSGSGSGTDFTLTIRSLIPEDFATYYCQQTYNTPFTFGPGTKVEIK |
| 28 |  |  | H4H2291S (antibody, human IgG4, V domains shown, human IgG4 Fc (H4H)) VH: EVQLVESGGGLVQPGESLRLSCAASGFTFSNYAMSWVRQAPGKGLEWVSVISGSGGSTYYADSVKGRFTMSRDNSKNTLYLQMNSLRAEDTAVYYCAKPPSRAARYFNYGMDVWGQGTTVTVSS VL: AIRMTQSPSSVSASVGDRVTITCRASQGISSWLAWYQQKPGKAPKLLIYAASSLQSGVPSRFSGSGSGTDFTLTISSLQPEDFATYYCQQANSFPFTFGGGTKVEIK |
| 91 |  |  | H4H2296S (antibody, human IgG4, V domains shown, human IgG4 Fc (H4H)) VH: not shown VL: DIVMTQSPSSVSASVGDRVTITCRASQGISSWLAWYQQKPGKAPKLLIYAASSLRSGVPSRFSGSGSGTDFTLTITSLQPEDFATYYCQHTNSFPFTFGPGTKVEIK |
| 44 |  |  | H4H2295S (antibody, human IgG4, V domains shown, human IgG4 Fc (H4H)) VH: EVQLVESGGGLVQAGGSLRLSCVASGFTFSSYAMSWVRQAPGKGLEWVSAISGSGGSTYSADSVKGRFTISRDNSKNTLYLQMNSLRAEDTAVYYCTKPSSYSSSNFYYGMDVWGQGTTVTVSS VL: DIQMTQSPSSVSASVGDRVTITCRASQGISSWLAWYQQKPGKAPKLLIYTASSLQSGVPSRFSGSGSRTDFTLTISSLQPEDFATYYCQQTNSLPLTFGPGTKVEIK |
|  | no binding (tested: 100 ug/mL) |  | H4H2294S (antibody, human IgG4, V domains shown, human IgG4 Fc (H4H)) VH: EVQLVESGGGLVQPGGSLRLSCAASGFTFSSYAMSWVRQAPGKGLEWVSVISGSGGSTYYADAVKGRFTISRDNSKHTLYLQMNSLRAEDTAVYYCTKPSSYSSSNFYYGMDVWGQGSTVTVSS VL: DIQLTQSPSSVSASVGDRVTITCRASQGISSWLAWYQQKPGKAPKLLIYAASSLQSGVPSRFSGSGSGTDFTLTISSLQPEDFATYYCQQTNSFPFPFGPGTKVDIK |
|  | no binding (tested: 100 ug/mL) |  | H4H2342P (antibody, human IgG4, V domains shown, human IgG4 Fc (H4H)) VH: EVQLLESGGGLVQPGGSLRLSCAASGFTFSTYAMSWVRQAPGKGLEWVSAIRGNGVNTYYGDSMKGRFTISRDNSKDTLYLQMNSLRAEDTAVYYCAKNKWELLVFEYWGQGTLVTVSS VL: DIQMTQSPSSLSASVGDRVTITCRASQDISNYLAWYQQKPGKVPKLLIYAASTLQSGVPFRFSGSGSGTDFTLTISSLQPEDVATYYCQKYNSAPPFGPGTKVDIK |

— patent US20140056903A1 (Regeneron, published 2014)
